In paper doi:10.1101/2025.10.29.685445 (2025):

T1: HCoV-HKU1 RBD (residues 310-606 of isolate N5), Fc- and His-tagged (HCoV-HKU1 (isolate N5), UniProt Q0ZME7 310-606)
T1 chain: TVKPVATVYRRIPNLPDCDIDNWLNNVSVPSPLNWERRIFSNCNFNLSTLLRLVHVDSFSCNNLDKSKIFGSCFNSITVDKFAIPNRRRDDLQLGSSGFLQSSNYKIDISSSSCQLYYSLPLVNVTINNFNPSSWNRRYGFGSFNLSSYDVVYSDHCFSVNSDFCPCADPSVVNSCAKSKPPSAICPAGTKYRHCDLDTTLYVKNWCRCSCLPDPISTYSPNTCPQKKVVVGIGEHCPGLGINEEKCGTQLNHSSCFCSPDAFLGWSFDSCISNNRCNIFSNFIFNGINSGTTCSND

B1: HCoV-HKU1 RBD (residues 310-606 of isolate N5), as used in BLI (domain or fragment)
chain: T1 chain
B2: H501-008 Fab (Fab, V domains shown)
VH: QVQLVQSGGGVVQPGRSLRLSCAVSGFTLDRYAMHWVRQAPGKALEWVALMSADGREQYYAESVKGRFTFSRDSSKNTLYLQMHNLRTDDSSVYFCAREGPMYYDAWSGRSYYNNYALDVWGRGTTVAVSS
VL: QSVLTQPPSVSAAPGQTVTISCSGSSSNIGDNYVSWYQQVPGTAPRLLVYDNNRRPLGIPDRFSGSKSGTSATLAIAGLQTGDEADYYCGTWDSSLSAGVFGGGTKLTVV

Legend:
H501-009 = test: BLI
H501-016 = test: BLI
H501-013 = test: BLI
H501-012 = test: BLI
H501-020 = test: BLI
H501-015 = test: BLI
H501-003 = test: BLI
[1] = biological target: HCoV-OC43 S1-CTD (residues 318-608), Fc- and His-tagged (HCoV-OC43); test: SPR
[2] = biological target: T1, HCoV-HKU1 RBD (residues 310-606 of …); test: SPR

| Binder | Kd (H501-009) [pM] | koff (H501-009) [s⁻¹] | Kd (H501-016) [pM] | koff (H501-016) [s⁻¹] | Kd (H501-013) [pM] | koff (H501-013) [s⁻¹] | Kd (H501-012) [pM] | koff (H501-012) [s⁻¹] | Kd (H501-020) [pM] | koff (H501-020) [s⁻¹] | Kd (H501-015) [pM] | koff (H501-015) [s⁻¹] | Kd (H501-003) [pM] | koff [1] [s⁻¹] | koff [2] [s⁻¹] |
| --- | --- | --- | --- | --- | --- | --- | --- | --- | --- | --- | --- | --- | --- | --- | --- |
| B1 | 5440 | 0.000383 | 176 | 3.26e-05 | 915 | 0.000209 | 1870 | 0.000326 | < 1 | < 1e-07 | 568 | 0.000117 | 508 |  |  |
| B2 |  |  |  |  |  |  |  |  |  |  |  |  |  | 0.042 | 0.000197 |
